Results on 3 molecules are retold here after patent US6132729 (Board of Regents, The University of Texas System, dated 2000).

“And” between values parts separate entries of the source, which are not always exact repeats. Equal values may be shown once. Read-outs that look alike come from different tables or passages of the source.

For experiment [1], the target named is tTF219 (truncated Tissue Factor, extracellular domain of mature human Tissue Factor) (human).
Experiment [2] deals with H6-N'-cys-tTF219 (human).
Experiment [3] addresses IgG-H6-N'-cys-tTF219 (human).
Experiment [4] addresses H6-N'-cys-tTF219 (human). The source holds these as a separate data set.
Experiment [5] deals with tTF219 (truncated Tissue Factor, extracellular domain of mature human Tissue Factor) (human). This is another data set of the same source.
Experiment [6] deals with H6-N'-cys-tTF219 dimer (human).
Experiment [7] deals with tTF219 (truncated Tissue Factor, extracellular domain of mature human Tissue Factor) (human). The source holds these as a separate data set.
The target in experiment [8] is H6-tTF221-cys-C' dimer (human).
Experiment [9] deals with tTF219 (truncated Tissue Factor, extracellular domain of mature human Tissue Factor) (human). The source holds these as a separate data set.
Experiment [10] shares this target. This is another data set of the same source.
Experiment [11] addresses T1, Factor VIIa (recombinant human) (human).
T1 chain 1: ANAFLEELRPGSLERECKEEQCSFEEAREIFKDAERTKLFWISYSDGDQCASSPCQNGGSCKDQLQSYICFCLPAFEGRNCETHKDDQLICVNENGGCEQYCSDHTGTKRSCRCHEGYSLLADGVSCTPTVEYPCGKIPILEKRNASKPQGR
T1 chain 2: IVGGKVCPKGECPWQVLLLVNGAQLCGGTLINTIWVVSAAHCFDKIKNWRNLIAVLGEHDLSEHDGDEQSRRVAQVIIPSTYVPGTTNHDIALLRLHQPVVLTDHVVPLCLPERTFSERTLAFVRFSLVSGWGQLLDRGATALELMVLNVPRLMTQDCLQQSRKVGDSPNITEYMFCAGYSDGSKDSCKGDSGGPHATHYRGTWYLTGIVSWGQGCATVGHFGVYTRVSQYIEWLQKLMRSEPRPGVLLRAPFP
The experiment is described as follows: cell-based or functional assay.

In the case of B21-2/10H10 bispecific antibody, the tTF concentration at which plasma coagulated in 50 seconds with tTF221-cys-C' (human) stood at 500 pM; with H6-tTF220-cys-C' (human), 500 pM; in [1] it was 500 pM; in the experiment with H6-tTF221-cys-C' (human), 500 pM; with tTF220-cys-C' (human), 500 pM; in the experiment with H6-tTF219-cys-C' (human) it was 3 nM. In addition, the tTF concentration at which plasma coagulated in 50 seconds with H6-N'-cys-tTF219 (human) [2] was 3 nM; in experiment [3] it was 5 nM; with H6-N'-cys-tTF219 (human) [4] it was 1 nM; in experiment [5], 1 nM; in experiment [6], 100 pM and 200 pM; in experiment [7] it was 100 pM and 200 pM. Moreover, the figures for the tTF concentration at which plasma coagulated in 50 seconds in experiment [8] and in [9] were 4 nM and 3 nM, respectively. The same molecule showed a coagulation inducing activity against the unconjugated form in [3] of 5 fold reduced. The molecule further yielded a clotting time of mouse plasma on A20 cells in [10] of 36 s.
Consider IgG-H6-N'-cys-tTF219, for which the conversion of Factor X to Xa (chromogenic substrate S-2765, OD 409 nm) (fold less active) in the experiment with Factor VII in Proplex T stood at 2.

B1: tTF219 (truncated Tissue Factor, extracellular domain of mature human Tissue Factor) (receptor)
chain: GSGTTNTVAAYNLTWKSTNFKTILEWEPKPVNQVYTVQISTKSGDWKSKCFYTTDTECDLTDEIVKDVKQTYLARVFSYPAGNVESTGSAGEPLYENSPEFTPYLETNLGQPTIQSFEQVGTKVNVTVEDERTLVRRNNTFLSLRDVFGKDLIYTLYYWKSSSSGKKTAKTNTNEFLIDVDKGENYCFSVQAVIPSRTVNRKSTDSPVECMGQEKGEFRE
On to B1, for which the “coagulation-inducing potency of cell-associated tTF219 with added Factor VIIa” value in [11] is ~100 fold.
